Key:
Assay in all cases: IEDB peptide-MHC binding, purified MHC/competitive/radioactivity; filed as Kd, often an IC50 or EC50 that approximates it; ≥ and ≤ were set here for values at or beyond the usual limits of such assays
[1] = target: HLA-A*03:01
[2] = target: HLA-A*11:01
[3] = target: HLA-A*31:01
[4] = target: HLA-A*33:01
[5] = target: HLA-A*68:01
[6] = source organism: Vaccinia virus WR
[7] = source organism: Dengue virus 2 Peru/IQT2913/1996
[8] = source organism: SARS coronavirus Tor2
[9] = source organism: Mammarenavirus mopeiaense
[10] = source organism: Mammarenavirus lassaense
[11] = source organism: Lymphocytic choriomeningitis virus (strain Armstrong)
[12] = source organism: Mammarenavirus guanaritoense

For KVKTELVMDK, which Kd [1, 6] is on record?
The Kd was 1.33 µM.

What about the Kd [2, 6] of the same sequence?
The Kd was 0.409 µM.

And the Kd [3, 6]?
The Kd was 0.12 µM.

What about the Kd [4, 6] of the same sequence?
Its Kd is ≥ 70 µM.

What about the Kd [5, 6] of the same sequence?
The Kd was ≥ 48.6 µM.

For TTFITPMLR, which Kd [1, 7] is on record?
The Kd was 0.0132 µM.

And the Kd [2, 7]?
The Kd was 0.0844 µM.

What about the Kd [3, 7] of the same sequence?
The Kd was 0.0271 µM.

What about the Kd [4, 7] of the same sequence?
Its Kd is 0.0117 µM.

What about the Kd [5, 7] of the same sequence?
Its Kd is 0.00676 µM.

RALKAYFTAK was tested. Which Kd [1, 6] did it give?
The Kd was 0.0124 µM.

And the Kd [2, 6]?
Its Kd is 0.0265 µM.

And the Kd [3, 6]?
The Kd was 0.0388 µM.

And the Kd [4, 6]?
Its Kd is 16 µM.

What about the Kd [5, 6] of the same sequence?
The Kd was 1.95 µM.

What does the source list for ETSPGEIKPK?
Kd [1, 6]: ≥ 35 µM; Kd [2, 6]: 1.52 µM; Kd [3, 6]: ≥ 70 µM; Kd [4, 6]: ≥ 61.9 µM; Kd [5, 6]: 0.0475 µM

How did the Kd [1, 8] turn out when GVVREFLTR was run?
The Kd was 19 µM.

What about the Kd [2, 8] of the same sequence?
Its Kd is 0.522 µM.

What about the Kd [3, 8] of the same sequence?
Its Kd is 0.899 µM.

And the Kd [4, 8]?
Its Kd is 13.2 µM.

What about the Kd [5, 8] of the same sequence?
The Kd was 0.186 µM.

KCFGNTAIAK was tested. Which Kd [1, 9] did it give?
The Kd was 0.195 µM.

What about the Kd [2, 9] of the same sequence?
Its Kd is 7.37 µM.

What about the Kd [3, 9] of the same sequence?
Its Kd is 0.528 µM.

What about the Kd [4, 9] of the same sequence?
The Kd was 3.38 µM.

And the Kd [5, 9]?
The Kd was 7.87 µM.

Which results are given for MQNCLLRLK?
Kd [1, 8]: 0.0983 µM; Kd [2, 8]: 0.0177 µM; Kd [3, 8]: 0.0131 µM; Kd [4, 8]: 12.1 µM; Kd [5, 8]: 1.37 µM

With HINTLIQYR as the sequence, how does the Kd [1, 6] read?
The Kd was 0.191 µM.

What about the Kd [2, 6] of the same sequence?
The Kd was 0.197 µM.

What about the Kd [3, 6] of the same sequence?
Its Kd is 0.00605 µM.

And the Kd [4, 6]?
Its Kd is 0.0165 µM.

And the Kd [5, 6]?
Its Kd is 0.0148 µM.

For MMKLGISPSK, which Kd [1, 6] is on record?
The Kd was 0.0115 µM.

And the Kd [2, 6]?
Its Kd is 0.0271 µM.

And the Kd [3, 6]?
Its Kd is 0.382 µM.

And the Kd [4, 6]?
Its Kd is 10.6 µM.

And the Kd [5, 6]?
The Kd was 0.0811 µM.

Which results are given for IMASLVLAR?
Kd [1, 8]: 0.0106 µM; Kd [2, 8]: 0.104 µM; Kd [3, 8]: 0.018 µM; Kd [4, 8]: 0.56 µM; Kd [5, 8]: 0.0284 µM

What does the source list for SSLRREHIK?
Kd [1, 6]: 1.07 µM; Kd [2, 6]: 0.27 µM; Kd [3, 6]: 0.0897 µM; Kd [4, 6]: ≥ 37.1 µM; Kd [5, 6]: 14 µM

What does the source list for FVFPLNSKVK?
Kd [1, 8]: 0.164 µM; Kd [2, 8]: 0.113 µM; Kd [3, 8]: 12.8 µM; Kd [4, 8]: 16.7 µM; Kd [5, 8]: 0.00876 µM

Which results are given for RVRRYQIAQY?
Kd [1, 6]: 0.0206 µM; Kd [2, 6]: ≥ 25.5 µM; Kd [3, 6]: 2.44 µM; Kd [4, 6]: ≥ 70 µM; Kd [5, 6]: 6.34 µM

STGESSILR was tested. Which Kd [1, 6] did it give?
The Kd was 0.31 µM.

What about the Kd [2, 6] of the same sequence?
Its Kd is 0.928 µM.

What about the Kd [3, 6] of the same sequence?
The Kd was 1.34 µM.

And the Kd [4, 6]?
Its Kd is 4.73 µM.

And the Kd [5, 6]?
The Kd was 0.196 µM.

SLTSLLKTHR was tested. Which Kd [1, 8] did it give?
The Kd was 1.45 µM.

And the Kd [2, 8]?
Its Kd is 1.23 µM.

What about the Kd [3, 8] of the same sequence?
The Kd was 0.105 µM.

What about the Kd [4, 8] of the same sequence?
Its Kd is 0.804 µM.

And the Kd [5, 8]?
The Kd was 0.698 µM.

Which Kd [1, 8] does the source give for SVFYLYLTFY here?
Its Kd is 1.79 µM.

And the Kd [2, 8]?
Its Kd is 0.196 µM.

And the Kd [3, 8]?
Its Kd is 2.86 µM.

What about the Kd [4, 8] of the same sequence?
The Kd was 6.01 µM.

And the Kd [5, 8]?
The Kd was 0.0994 µM.

Which results are given for RQILDNAAK?
Kd [1, 6]: 0.117 µM; Kd [2, 6]: 0.144 µM; Kd [3, 6]: 1.11 µM; Kd [4, 6]: ≥ 77.7 µM; Kd [5, 6]: ≥ 35.3 µM

With TCQGSDDIK as the sequence, how does the Kd [1, 10] read?
Its Kd is ≥ 78 µM.

And the Kd [2, 10]?
The Kd was 16.5 µM.

And the Kd [3, 10]?
Its Kd is 5.09 µM.

What about the Kd [4, 10] of the same sequence?
The Kd was 2.84 µM.

And the Kd [5, 10]?
The Kd was 7.39 µM.

Which results are given for PVNQFTGYLK?
Kd [1, 8]: 5.33 µM; Kd [2, 8]: 0.764 µM; Kd [3, 8]: ≥ 70 µM; Kd [4, 8]: ≥ 61.9 µM; Kd [5, 8]: 2.26 µM

Which results are given for KVVDTFISY?
Kd [1, 6]: 0.0079 µM; Kd [2, 6]: 0.00498 µM; Kd [3, 6]: 1.17 µM; Kd [4, 6]: 12.3 µM; Kd [5, 6]: 3.38 µM

How did the Kd [1, 6] turn out when SVKYYGRSTK was run?
The Kd was 0.0976 µM.

And the Kd [2, 6]?
The Kd was 0.571 µM.

And the Kd [3, 6]?
Its Kd is 1.34 µM.

And the Kd [4, 6]?
Its Kd is 13.5 µM.

And the Kd [5, 6]?
The Kd was 0.822 µM.

SHLGPQFCK was tested. Which Kd [1, 10] did it give?
The Kd was 0.699 µM.

And the Kd [2, 10]?
The Kd was 0.347 µM.

What about the Kd [3, 10] of the same sequence?
Its Kd is ≥ 24.2 µM.

And the Kd [4, 10]?
The Kd was ≥ 28.3 µM.

What about the Kd [5, 10] of the same sequence?
Its Kd is 6.22 µM.

With SSLVKNVNK as the sequence, how does the Kd [1, 6] read?
Its Kd is 0.432 µM.

And the Kd [2, 6]?
Its Kd is 0.0271 µM.

What about the Kd [3, 6] of the same sequence?
Its Kd is 1.25 µM.

What about the Kd [4, 6] of the same sequence?
The Kd was ≥ 77.7 µM.

What about the Kd [5, 6] of the same sequence?
The Kd was 4.4 µM.

With NFLKEQHCQK as the sequence, how does the Kd [1, 8] read?
Its Kd is 7.28 µM.

What about the Kd [2, 8] of the same sequence?
Its Kd is 13.3 µM.

And the Kd [3, 8]?
Its Kd is 1.47 µM.

What about the Kd [4, 8] of the same sequence?
The Kd was 1.22 µM.

And the Kd [5, 8]?
Its Kd is ≥ 36.4 µM.

Which results are given for RFQPFQQFGR?
Kd [1, 8]: 13.5 µM; Kd [2, 8]: ≥ 35.1 µM; Kd [3, 8]: 0.00106 µM; Kd [4, 8]: 1.3 µM; Kd [5, 8]: 0.54 µM

SCQGSDDIRK was tested. Which Kd [1, 11] did it give?
The Kd was ≥ 70 µM.

What about the Kd [2, 11] of the same sequence?
The Kd was 18.3 µM.

And the Kd [3, 11]?
Its Kd is 9.93 µM.

And the Kd [4, 11]?
The Kd was ≥ 70 µM.

What about the Kd [5, 11] of the same sequence?
Its Kd is ≥ 70.1 µM.

Which Kd [1, 11] does the source give for VCLALTNSMK here?
Its Kd is 0.0424 µM.

What about the Kd [2, 11] of the same sequence?
Its Kd is 0.634 µM.

What about the Kd [3, 11] of the same sequence?
Its Kd is 4.56 µM.

And the Kd [4, 11]?
Its Kd is ≥ 66.8 µM.

What about the Kd [5, 11] of the same sequence?
The Kd was 19.3 µM.

For TVNICIFYDR, which Kd [1, 6] is on record?
The Kd was 0.414 µM.

And the Kd [2, 6]?
Its Kd is 0.151 µM.

What about the Kd [3, 6] of the same sequence?
Its Kd is 0.0123 µM.

And the Kd [4, 6]?
The Kd was 0.0728 µM.

And the Kd [5, 6]?
The Kd was 0.0277 µM.

How did the Kd [1, 12] turn out when FFTTSLFLH was run?
The Kd was ≥ 55.7 µM.

What about the Kd [2, 12] of the same sequence?
Its Kd is ≥ 77.9 µM.

And the Kd [3, 12]?
The Kd was 1.19 µM.

What about the Kd [4, 12] of the same sequence?
Its Kd is ≥ 77.7 µM.

And the Kd [5, 12]?
The Kd was ≥ 24.8 µM.

For IMFMLIFNVK, which Kd [1, 6] is on record?
The Kd was 0.157 µM.

What about the Kd [2, 6] of the same sequence?
The Kd was 0.2 µM.

And the Kd [3, 6]?
The Kd was 0.663 µM.

What about the Kd [4, 6] of the same sequence?
The Kd was 1.22 µM.

And the Kd [5, 6]?
Its Kd is 0.136 µM.

With SLTILDDNLY as the sequence, how does the Kd [1, 6] read?
The Kd was 0.491 µM.

And the Kd [2, 6]?
The Kd was 3.07 µM.

What about the Kd [3, 6] of the same sequence?
The Kd was ≥ 47 µM.

And the Kd [4, 6]?
Its Kd is 15 µM.

And the Kd [5, 6]?
Its Kd is 5.99 µM.

Which results are given for IILAALFMYY?
Kd [1, 6]: 0.679 µM; Kd [2, 6]: 0.74 µM; Kd [3, 6]: ≥ 70 µM; Kd [4, 6]: ≥ 70 µM; Kd [5, 6]: 1.48 µM

Which results are given for VLTSEEVVLK?
Kd [1, 8]: 7.47 µM; Kd [2, 8]: 0.966 µM; Kd [3, 8]: ≥ 70 µM; Kd [4, 8]: ≥ 70 µM; Kd [5, 8]: 2.1 µM

How did the Kd [1, 8] turn out when NLLDSYFVVK was run?
Its Kd is 5.37 µM.

What about the Kd [2, 8] of the same sequence?
Its Kd is 1.87 µM.

And the Kd [3, 8]?
Its Kd is 7.22 µM.

And the Kd [4, 8]?
The Kd was 4.59 µM.

What about the Kd [5, 8] of the same sequence?
Its Kd is 2.35 µM.

What does the source list for VVVQIDPEY?
Kd [1, 6]: 0.141 µM; Kd [2, 6]: 2.34 µM; Kd [3, 6]: ≥ 77.9 µM; Kd [4, 6]: ≥ 77.7 µM; Kd [5, 6]: 0.11 µM
